Reference: WO2017175058A1 (dated 2017)
Changes are numbered by the printed parent chain. Each block holds one binder with its values, some of them ahead of it.

Target: T1, human VISTA on the surface of cells (human, UniProt Q9H7M9 33-295)
T1 sequence: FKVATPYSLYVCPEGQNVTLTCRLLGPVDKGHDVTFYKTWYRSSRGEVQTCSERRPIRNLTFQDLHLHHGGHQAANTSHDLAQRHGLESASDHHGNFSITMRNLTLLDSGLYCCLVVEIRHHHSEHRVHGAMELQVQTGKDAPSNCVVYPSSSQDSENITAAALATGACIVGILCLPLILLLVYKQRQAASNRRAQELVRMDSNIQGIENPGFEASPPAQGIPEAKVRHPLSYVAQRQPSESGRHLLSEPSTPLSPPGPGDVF
Test: cell-based or functional assay

IC50, CPM (proliferation), SEB assay: -0.74 log10 of antibody concentration | IC50, Gamma (IFN-g), SEB assay: 1.69 log10 of antibody concentration
B1: VSTB50 (antibody, human IgG1, V domains shown)
VH: QVQLVQSGSELKKPGASVKVSCKASGYTFTNYGLNWVRQAPGQGLEWMGWINPYTGEPTYADDFKGRFVFSLDTSVSTAYLQICSLKAEDTAVYYCAREGYGNYIFPYWGQGTLVTVSS
VL: DIVMTQTPLSLSVTPGQPASISCRASESVDTYANSLMHWYLQKPGQPPQLLIYRASNLESGVPDRFSGSGSGTDFTLKISRVEAEDVGVYYCQQTNEDPRTFGQGTKLEIK

IC50, CPM (proliferation), SEB assay: -1.06 log10 of antibody concentration | IC50, Gamma (IFN-g), SEB assay: -1.05 log10 of antibody concentration
B2: VSTB53 (antibody, human IgG1, V domains shown)
VH: QVQLVQSGAEVKKPGASVKVSCKASGYTFTHYTIHWVRQAPGQGLEWMGYIIPSSGYSEYNQKFKDRVTMTRDTSTSTVYMELSSLRSEDTAVYYCARGAYDDYYDYYAMDYWGQGTLVTVSS
VL: DIVMTQSPLSLPVTPGEPASISCRSSQTIVHSNGNTYLEWYLQKPGQSPQLLIYKVSNRFSGVPDRFSGSGSGTDFTLKISRVEAEDVGVYYCFQASHVPWTFGQGTKLEIK

IC50, CPM (proliferation), SEB assay: -1.12 log10 of antibody concentration | IC50, Gamma (IFN-g), SEB assay: 0.05 log10 of antibody concentration
B3: VSTB95 (antibody, human IgG1, V domains shown)
VH: EVQLVESGGGLVQPGGSLRLSCAASGFTFRNYGMSWVRQAPGKGLEWVASIISGGSYTYYPDSVKGRFTISRDNAKNSLYLQMNSLRAEDTAVYYCARIYDHDGDYYAMDYWGQGTTVTVSS
VL: B2 VL with T28S, A96G

IC50, CPM (proliferation), SEB assay: -1.44 log10 of antibody concentration | IC50, Gamma (IFN-g), SEB assay: -0.35 log10 of antibody concentration
B4: VSTB116 (antibody, V domains shown)
VH: QVQLVQSGAEVKKPGSSVKVSCKASGGTFSSYAISWVRQAPGQGLEWMGGIIPIFGTANYAQKFQGRVTITADESTSTAYMELSSLRSEDTAVYYCARSSYGWSYEFDYWGQGTLVTVSS
VL: DIQMTQSPSSLSASVGDRVTITCRASQSINTNLNWYQQKPGKAPKLLIYAASSLQSGVPSRFSGSGSGTDFTLTISSLQPEDFATYYCQQARDTPITFGQGTKVEIKR
